Results on two molecules are retold here after patent publication US20110165265A1, “TRAIL VARIANTS FOR TREATING CANCER” (FUNDACIÓ GENÒMICA (CRG), priority 2007, published 2011).

Entries after “also recorded” stand apart in the source; their conditions may differ.

For data set [1], the system named is VACO-235 and VACO330. Nature of the data set: Sensitivity of colon adenoma cell lines. Conditions: 96 hours. The data set is classed as cell-based, human. The method, then: The colon adenoma cell lines VACO-235 and VACO330 were treated with TRAIL or D269H/E195R for 96 hours. […] Sensitivity could be further enhanced using TRAIL or D269H/E195R in combination with the cdk inhibitor roscovitine.

For data set [2], the target named is T1, DcR1 (Homo sapiens, UniProt O14798).
T1 construct: soluble, recombinant DcR1-Ig (sDcR1) and DcR2-Ig (sDcR2); purchased R&D Systems
T1 sequence (O14798 26-236 limits assumed): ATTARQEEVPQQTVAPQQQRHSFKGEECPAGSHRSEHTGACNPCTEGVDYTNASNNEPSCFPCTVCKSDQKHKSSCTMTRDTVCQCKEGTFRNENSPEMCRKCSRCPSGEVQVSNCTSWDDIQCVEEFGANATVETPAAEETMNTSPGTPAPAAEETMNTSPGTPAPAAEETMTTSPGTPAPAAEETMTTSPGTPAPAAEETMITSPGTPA
The data set can be described thus: SPR receptor binding assay, immobilized DcR1-Ig. Conditions: 0.1-250 nM ligand. The method, then: (§1) The response data (in response units) as a function of TRAIL concentration were fitted using a four parameter equation to give an apparent pre-steady state affinity constant.
(§2) Binding experiments were performed at 37° C. using a surface plasmon resonance-based biosensor (Biacore 3000, Biacore AB, Uppsala, Sweden) as previously described^10. In short, DcR1-Ig and DcR2-Ig receptor chimeras (R&D Systems) were captured at a 35 μl/min flow rate using a protein A (Sigma) modified CM5 sensor chip (Biacore). Receptor chimeras were captured at a level of ˜500-800 response units (RU). […] Binding of ligands to the receptors was monitored in real-time. Between injections the protein A sensor surface was regenerated using a 30s pulse of 0.1 M glycine 0.5 M NaCl pH 3. Due to the very slow dissociation of the TRAIL-receptor complex, only pre-steady state binding data could be obtained. In order to obtain data that represent proper high-affinity complex formation, the response at each concentration was recorded 30 sec after the end of the injection. The response data (in response units) as a function of TRAIL concentration were fitted using a four parameter equation to give an apparent pre-steady state affinity constant.
(§3) Affinity of the ligands was assessed by measuring receptor binding in a concentration range of 0.1-250 nM.

The target in data set [3] is T2, DR4 (Homo sapiens, UniProt O00220).
T2 construct: the more commonly used dimeric TRAIL-receptor-IgG Fc chimeric constructs
Nature of the data set: SPR binding to immobilized DR4-Ig. As to conditions: pre-steady state SPR. An excerpt: In other experiments dissociation was continued for periods of up to 2,000 sec, with similar results. As a consequence it is essentially impossible to obtain a dissociation rate constant and thus to calculate the affinity from the association and dissociation rate constants. We therefore chose to use the pre-steady state approach to analyse the data^10. […] With these two changes this variant has become an TRAIL variant that binds to DR5 with high selectivity and affinity.
(In general: SPR reads the build-up and loss of mass on a sensor chip optically.)

Data set [4] concerns A2780 cells. Nature of the data set: MTT cytotoxicity in A2780 (Example 6). The data set is classed as cell-based. Conditions: A2780 (FIG. 8E).
For data set [5], the system named is A2780 cells. The data set can be described thus: Sensitivity of ovarian carcinoma cell line A2780 (Example 4). The data set is classed as cell-based, human. An excerpt: The ovarian carcinoma cell line A2780 expresses very low levels of DR4, and high levels of the other three membrane-bound TRAIL receptors. Sensitivity of these cells to wild type TRAIL and the DR5-specific variant was compared initially as a single agent. The sensitivity pattern is illustrated in the Table 6, with + indicating minimally sensitive, ++ moderately sensitive and +++ very sensitive.

Data set [6] deals with Colo205 cells. The data set can be described thus: Annexin V apoptosis assay in Colo205. The data set is classed as cell-based, human. Conditions: Colo205, 3 h. On the procedure: Colo205 cells express all four TRAIL receptors, and are sensitive to TRAIL-induced apoptosis, which is mediated predominantly via DRS in these cells^10. […] Induction of cell death was measured by Annexin V assay, wherein externalization of phosphatidyl serine (PS) on the plasma membrane of apoptotic cells was detected using Annexin V-FITC (IQ Corporation, Groningen, The Netherlands). Briefly, cells were trypsinized and were then collected by centrifugation at 400 g, washed in ice-cold calcium buffer (10 mM HEPES/NaOH, pH 7.4, 140 mM NaCl, 2.5 mM CaCl2) and incubated with Annexin V-FITC for 15 min in the dark prior to acquisition on a FACSCalibur flow cytometer (Becton Dickinson).

In data set [7] the test system is BJAB cells. The data set can be described thus: Cytotoxicity in BJAB cells. The data set is classed as cell-based.
For data set [8], the target named is T3, DR5 (Homo sapiens, UniProt O14763).
T3 construct: Effect of soluble recombinant DR5-Ig (sDR5) on apoptosis induction
The data set can be described thus: SPR binding to immobilized DR5-Ig.

In data set [9] the target is T4, DcR2 (Homo sapiens, UniProt Q9UBN6).
T4 construct: soluble, recombinant DcR1-Ig (sDcR1) and DcR2-Ig (sDcR2); purchased R&D Systems
T4 sequence (Q9UBN6 56-211 limits assumed): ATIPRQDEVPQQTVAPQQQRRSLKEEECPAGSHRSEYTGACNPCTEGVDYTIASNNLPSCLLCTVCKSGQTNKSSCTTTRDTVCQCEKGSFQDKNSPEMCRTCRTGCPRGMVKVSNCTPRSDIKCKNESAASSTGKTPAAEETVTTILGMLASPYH
Nature of the data set: SPR receptor binding assay, immobilized DcR2-Ig. As to conditions: 0.1-250 nM ligand. The method, then: as §1, §2, §3

For data set [10], the system named is Colo205 tumors. Nature of the data set: Colo205 tumors in athymic nude mice. The data set is classed as in vivo. Conditions: 1 and 5 mg/kg IP.
For data set [11] the following is noted: acknowledged value; cited from earlier work.
The target of data set [12] is T3, DR5. As to conditions: surface plasmon resonance; read-out: binding affinity Kd for DR5; cited from earlier work.

T2 sequence (O00220 24-239 limits assumed): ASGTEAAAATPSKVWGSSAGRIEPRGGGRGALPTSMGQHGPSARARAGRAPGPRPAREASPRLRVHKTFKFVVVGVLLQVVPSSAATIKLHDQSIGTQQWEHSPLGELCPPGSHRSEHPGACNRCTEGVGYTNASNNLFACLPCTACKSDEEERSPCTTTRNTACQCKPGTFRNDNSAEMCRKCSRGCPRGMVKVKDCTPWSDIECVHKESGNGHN

B1: D269HE195R: rhTRAIL (114-281) carrying mutations D269H and E195R; DR5-selective TRAIL variant (protein)
chain: MVRERGPQRVAAHITGTRGRSNTLSSPNSKNEKALGRKINSWESSRSGHSFLSNLHLRNGELVIHEKGFYYIYSQTYFRFQERIKENTKNDKQMVQYIYKYTSYPDPILLMKSARNSCWSKDAEYGLYSIYQGGIFELKENDRIFVSVTNEHLIDMHHEASFFGAFLVG
On to B1, for which the “sensitivity of adenoma cell lines” value in data set [1] is “more sensitive to D269H/E195R”. For the same molecule, the “binding towards DcR1, reduction compared to wtTRAIL” value in data set [2] was “approximately 20 fold”. Moreover, in [3], the “affinity for DR4-Ig compared to wtTRAIL” value is recorded as “almost abolished”. Moreover, the “cytotoxic activity compared with wild-type TRAIL” value in [4] is “significantly increased”. Moreover, the “efficacy in combination with Cisplatin” value in data set [5] is “higher efficacy than wtTRAIL”. For the same molecule, the “sensitivity compared to wild type TRAIL, single agent” value in data set [5] is “increased sensitivity”. For the same molecule, the “increase in apoptosis / cytotoxic potential compared to wtTRAIL (based on IC50)” value is given as 2.7-4.2 fold in data set [6] and 3.3-4.2 fold in data set [6] (listed as D269H/E195R). The cell death induction result in [7] (BJABDR5 DEF cells) is “unable to induce significant cell death”; in [7] (BJABwt cells) it was “able to induce cell death”. In addition, the cytotoxic potential entry in data set [7] (BJABDR5 DEF+DR5 cells) is given as “restored”. For the same molecule, the “increase in association rate constant (kon) for binding to DR5 compared to wtTRAIL” value in data set [8] is on record as “less than 5 fold”. The “affinity for DR5-Ig compared to wtTRAIL” value in data set [8] (pre-steady state SPR) is “increased several fold”. Moreover, the “binding toward DcR2 compared to wtTRAIL” value in data set [9] is reported as “reduced”.

B2: wtTRAIL: wild-type soluble recombinant human TRAIL, amino acids 114-281 (SEQ ID NO: 3) (protein, listed as Homo sapiens)
chain: MVRRGRVAAHTGTRGRSNTSSNSKNKAGRKNSWSSRSGHSSNHRNGVHKGYYYSTYRKNTKNDKMVYYKYTSYDMKSARNSCWSKDAYGYSYGGKNDRVSVTNHDMDHASGAVG
modifications: TRAIL 114-281
As usually defined, the Kd is the constant that tells how readily two partners part at equilibrium. As for B2, the “anti-tumor effect, single therapy” value in data set [10] was “neither of the two concentrations of wtTRAIL give an anti-humor effect; also recorded: do not give an anti-tumor effect”. For the same molecule, in data set [11], the half life entry is “approximately 30 minutes”. Further, the Kd in data set [12] is 7.2 nM.
